# According to patent US20240092889A1 (Chugai, published 2024):
# B1: AL0737 (antibody, human IgG1, kappa, V domains shown)
# VH: QVQLVESGGGVVQPGRSLRLSCAASGFTFSAYAMNWIRQPPGKGLEWIGLIYGSGSTFYASWAKGRVTISVDTSKNQFSLKLSSVTAADTAVYYCARGRSVNYNSDFHLWGQGTLVTVSS
# VL: DIQMTQSPSSLSASVGDRVTITCQASQSLHDKKNLAWYQQKPGQPPKLLIYGASTLESGVPSRFSGSGSGTDFTLTISSLQPEDFATYYCQGEFSWSSADLNTFGQGTKVEIKR
# notes: COS0637temp with VL C94W/C95dL (Kabat), already in the VL entry
# B2: AL0743 (antibody, human IgG1, kappa, V domains shown)
# VH: QVQLVESGGGVVQPGRSLRLSCAASGFTFSAYAMNWIRQPPGKGLEWIGLIYGSGSTFYASWAKGRVTISVDTSKNQFSLKLSSVTAADTAVYYCARGRSVNYNSDFHLWGQGTLVTVSS
# VL: DIQMTQSPSSLSASVGDRVTITCQASQSLHDKKNLAWYQQKPGQPPKLLIYGASTLESGVPSRFSGSGSGTDFTLTISSLQPEDFATYYCQGEFSYSSADLNTFGQGTKVEIKR
# notes: COS0637temp with VL C94Y/C95dL (Kabat), already in the VL entry; template for further optimization
# B3: AL0744 (antibody, human IgG1, kappa, V domains shown)
# VH: QVQLVESGGGVVQPGRSLRLSCAASGFTFSAYAMNWIRQPPGKGLEWIGLIYGSGSTFYASWAKGRVTISVDTSKNQFSLKLSSVTAADTAVYYCARGRSVNYNSDFHLWGQGTLVTVSS
# VL: DIQMTQSPSSLSASVGDRVTITCQASQSLHDKKNLAWYQQKPGQPPKLLIYGASTLESGVPSRFSGSGSGTDFTLTISSLQPEDFATYYCQGEFSWSSADMNTFGQGTKVEIKR
# notes: COS0637temp with VL C94W/C95dM (Kabat), already in the VL entry
# B4: COS0637temp-TT91R (antibody)
# heavy: QVQLVESGGGVVQPGRSLRLSCAASGFTFSAYAMNWIRQPPGKGLEWIGLIYGSGSTFYASWAKGRVTISVDTSKNQFSLKLSSVTAADTAVYYCARGRSVNYNSDFHLWGQGTLVTVSSASTKGPSVFPLAPSSKSTSGGTAALGCLVKDYFPEPVTVSWNSGALTSGVHTFPAVLQSSGLYSLSSVVTVPSSSLGTQTYICNVNHKPSNTKVDKRVEPKSCDKTHTCPPCPAPEYLGGDSVFLFPPKPKDVLMISRTPEVTCVVIDVSHEDPEVKFNWYVDGVEVHNAKTKPREEQYNSTYRVVSVLPVLHRDWLNGKEYKCKVSNKALPKPIEKTISKAKGQRREPQVYTLPPSREEMTKNQVSLTCLVKGFYPSDIAVEWESNGQPENNYKTTPPVLDSDGSFFLYSKLTVDKSRWQQGNVFSCSVLHEALHAHTTRKELSLSP
# light: DIQMTQSPSSLSASVGDRVTITCQASQSLHDKKNLAWYQQKPGQPPKLLIYGASTLESGVPSRFSGSGSGTDFTLTISSLQPEDFATYYCQGEFSCSSADCNTFGQGTKVEIKRTVAAPSVFIFPPSDEQLKSGTASVVCLLNNFYPREAKVQWKVDNALQSGNSQESVTEQDSKDSTYSLSSTLTLSKADYEKHKVYACEVTHQGLSSPVTKSFNRGEC
# notes: COS0637h with K101H in HCDR3; CH TT91R, CL SK1
# B5: recombinant human C1r2s2 tetramer (other)
# chain 1: EPTMYGEILSPNYPQAYPSEVEKSWDIEVPEGYGIHLYFTHLDIELSENCAYDSVQIISGDTEEGRLCGQRSSNNPHSPIVEEFQVPYNKLQVIFKSDFSNEERFTGFAAYYVATDINECTDFVDVPCSHFCNNFIGGYFCSCPPEYFLHDDMKNCGVNCSGDVFTALIGEIASPNYPKPYPENSRCEYQIRLEKGFQVVVTLRREDFDVEAADSAGNCLDSLVFVAGDRQFGPYCGHGFPGPLNIETKSNALDIIFQTDLTGQKKGWKLRYHGDPMPCPKEDTPNSVWEPAKAKYVFRDVVQITCLDGFEVVEGRVGATSFYSTCQSNGKWSNSKLKCQPVDCGIPESIENGKVEDPESTLFGSVIRYTCEEPYYYMENGGGGEYHCAGNGSWVNEVLGPELPKCVPVCGVPREPFEEKQRIIGGSDADIKNFPWQVFFDNPWAGGALINEYWVLTAAHVVEGNREPTMYVGSTSVQTSRLAKSKMLTPEHVFIHPGWKLLEVPEGRTNFDNDIALVRLKDPVKMGPTVSPICLPGTSSDYNLMDGDLGLISGWGRTEKRDRAVRLKAARLPVAPLRKCKEVKVEKPTADAEAYVFTPNMICAGGEKGMDSCKGDSGGAFAVQDPNDKTKFYAAGLVSWGPQCGTYGLYTRVKNYVDWIMKTMQENSTPRED
# chain 2: SIPIPQKLFGEVTSPLFPKPYPNNFETTTVITVPTGYRVKLVFQQFDLEPSEGCFYDYVKISADKKSLGRFCGQLGSPLGNPPGKKEFMSQGNKMLLTFHTDFSNEENGTIMFYKGFLAYYQAVDLDECASRSKLGEEDPQPQCQHLCHNYVGGYFCSCRPGYELQEDRHSCQAECSSELYTEASGYISSLEYPRSYPPDLRCNYSIRVERGLTLHLKFLEPFDIDDHQQVHCPYDQLQIYANGKNIGEFCGKQRPPDLDTSSNAVDLLFFTDESGDSRGWKLRYTTEIIKCPQPKTLDEFTIIQNLQPQYQFRDYFIATCKQGYQLIEGNQVLHSFTAVCQDDGTWHRAMPRCKIKDCGQPRNLPNGDFRYTTTMGVNTYKARIQYYCHEPYYKMQTRAGSRESEQGVYTCTAQGIWKNEQKGEKIPRCLPVCGKPVNPVEQRQQIIGGQKAKMGNFPWQVFTNIHGRGGGALLGDRWILTAAHTLYPKEHEAQSNASLDVFLGHTNVEELMKLGNHPIRRVSVHPDYRQDESYNFEGDIALLELENSVTLGPNLLPICLPDNDTFYDLGLMGYVSGFGVMEEKIAHDLRFVRLPVANPQACENWLRGKNRMDVFSQNMFCAGHPSLKQDACQGDAGGVFAVRDPNTDRWVATGIVSWGIGCSRGYGFYTKVLNYVDWIKKEMEEED
# notes: C1s and C1r co-expressed in HEK293/FreeStyle 293-F and purified from conditioned medium
# Legend:
# [1] = target: B5; assay: SPR (BIACORE), antibody captured by ProL, human C1r2s2 injected at 100 nM, pH 7.4, 37 C; y axis Response/Capture
# Experimental: Analysis of interaction between antibody variants and the human C1r2s2 prepared as mentioned above was carried out at pH7.4, at 37 degrees C. using BIACORE® T200 instrument (GE Healthcare) or BIACORE® 4000 (GE Healthcare). ProL (BioVision) was immobilized onto a CM4 sensorchip using amine coupling kit (GE Healthcare) according to the recommended settings by GE Healthcare. Antibodies and analytes were diluted into the respective running buffers, ACES pH7.4 (20 mM ACES (N-(2-Acetamido)-2-aminoethanesulfonic acid), 150 mM NaCl, 1.2 mM CaCl2, 1 mg/ml bovine serum albumin (BSA), 1 mg/ml CMD (CM-Dextran sodium salt), 0.05% Tween® 20 (polysorbate 20), 0.005 w/v % NaN3). Each antibody was captured onto the sensor surface by ProL. Antibody capture levels were aimed at 200 resonance units (RU). Then, recombinant human C1r2s2 was injected at concentrations of 25 and 100 nM followed by dissociation at pH7.4. The surface was regenerated using 10 mM Glycine-HCl, pH1.5.
# [2] = target: B5; assay: SPR (BIACORE T200), 37 C, Ab captured via anti-human Ig kappa, human C1r2s2 as analyte, pH 5.8
# Experimental: (§1) KD (dissociation constant) value of each samples at pH 7.4 and pH 5.8 are determined at 37 degrees C. using BIACORE® T200 instrument (GE Healthcare). Purified Mouse Anti-Human Ig kappa Light Chain (GE Healthcare) can be immobilized onto all flow cells of a CMS sensor chip using an amine coupling kit (GE Healthcare). 20 mM ACES, 150 mM NaCl, 1.2 mM CaCl2, 1 mg/mL BSA (IgG-free), 1 mg/mL CMD, 0.05% Tween® 20, 0.005% NaN3, pH 7.4 or pH 5.8 buffer were used as running buffer. Each antibody can be captured onto the sensor surface by Anti-Human Ig kappa Light chain. Antibody capture levels are aimed at 50 resonance unit (RU). […] Sensor surface is regenerated each cycle with, e.g., Glycine pH 2.0 (GE Healthcare). KD values were obtained using BIACORE® T200 Evaluation software, version 2.0 (GE Healthcare).
# [3] = target: B5; assay: SPR (BIACORE T200), 37 C, Ab captured via anti-human Ig kappa, human C1r2s2 as analyte, pH 7.4
# Experimental: as §1
# [4] = target: B5; assay: SPR (BIACORE T200), 37 C, ratio of KD at pH 5.8 to KD at pH 7.4
# Experimental: as §1
# [5] = target: T1, native human C1q (CompTech) (human, UniProt P02745 23-245; P02746 28-253; P02747 29-245); assay: SPR (BIACORE T200), human C1r2s2 captured by immobilised IPN009VH2Vk3-SG1148, native human C1q injected at about 100 nM, pH 7.4, 37 C
# T1 construct: the subunit make-up A/B/C is from general knowledge
# From the text: Recombinant human C1r2s2 tetramer was first captured onto the sensor surface by the anti-C1r2s2 antibody. The capture levels were aimed at 200 resonance unit (RU). […] The sensor surface was regenerated each cycle with 3 M MgCl2. Sensorgrams were obtained using BIACORE® T200 Evaluation software, version 2.0 (GE Healthcare). […] For comparison of these sensorgrams, binging response of C1r2s2 was normalized as 100 RU. […] For comparison of these sensorgrams, baseline (before injecting antibodies) was adjusted to 0 RU.
# T1 sequence (P02745 23-245 limits assumed, chain 1 of 3): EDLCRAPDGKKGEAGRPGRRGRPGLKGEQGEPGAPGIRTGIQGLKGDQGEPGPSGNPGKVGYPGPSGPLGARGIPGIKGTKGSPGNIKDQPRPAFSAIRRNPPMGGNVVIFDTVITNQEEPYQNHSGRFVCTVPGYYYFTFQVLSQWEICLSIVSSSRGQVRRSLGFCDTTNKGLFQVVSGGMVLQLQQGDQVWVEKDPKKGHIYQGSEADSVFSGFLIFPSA
# T1 sequence (P02746 28-253 limits assumed, chain 2 of 3): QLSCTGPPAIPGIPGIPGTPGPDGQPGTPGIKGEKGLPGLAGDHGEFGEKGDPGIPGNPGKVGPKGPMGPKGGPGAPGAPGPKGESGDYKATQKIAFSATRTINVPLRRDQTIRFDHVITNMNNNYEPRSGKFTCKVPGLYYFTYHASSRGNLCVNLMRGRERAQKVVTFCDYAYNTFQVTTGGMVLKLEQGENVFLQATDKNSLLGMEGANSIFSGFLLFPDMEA
# T1 sequence (P02747 29-245 limits assumed, chain 3 of 3): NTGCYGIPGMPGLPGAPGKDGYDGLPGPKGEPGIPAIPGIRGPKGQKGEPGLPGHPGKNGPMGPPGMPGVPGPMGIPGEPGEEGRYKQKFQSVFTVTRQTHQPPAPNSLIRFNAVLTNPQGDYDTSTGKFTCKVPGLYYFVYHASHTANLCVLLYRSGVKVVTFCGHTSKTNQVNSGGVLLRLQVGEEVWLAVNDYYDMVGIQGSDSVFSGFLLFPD
binder,measurement,setting,value
B1,binding result,[1],binds
B2,binding result,[1],binds
B3,binding result,[1],binds
B4,Kd,[2],6.39 µM
same,Kd,[3],55 nM
same,KD (pH 5.8)/KD (pH 7.4),[4],116
B5,binding result,[5],binds
